Laboratory results reported in US20250250357A1 (NANJING ZAIMING PHARMACEUTICAL, published 2025).
One block for each binder: values may come before it.

Legend:
[1] = molecular target: T1, human MSLN-R3-3 polypeptide (human); assay: ELISA on coated antigen, antibody 0.01 nM
T1 construct: also called human MSLN-R3-3 protein; hMSLN-R3-3
Description: (§1) The plate was sealed with a plastic film and incubated at 4° C. overnight. The next day, the plate was washed twice with PBST, and a blocking buffer [PBS+2% (w/w) BSA] was added for blocking at room temperature for 2 h. The blocking buffer was discarded, and a chimeric antibody or negative control antibody serially diluted from 100 nM was added at 50 μL/well. After incubation at 37° C. for 2 h, the plate was washed 3 times with PBST. […] After incubation at 37° C. for 2 h, the plate was washed 5 times with PBST. A TMB substrate was added at 50 μL/well for incubation at room temperature for 5-10 min, and then a stop solution (1.0 N HCl) was added at 50 μL/well.

[2] = molecular target: T2, human MSLN-R2-his protein (human, UniProt Q13421 391-486); assay: ELISA on coated antigen, antibody 0.001 nM
T2 construct: Self-made in HEK293E cells; also called human MSLN-R2 protein; hMSLN-R2-his; not shown: His tag
T2 sequence (Q13421 other isoform, or with tags, fused parts or gaps): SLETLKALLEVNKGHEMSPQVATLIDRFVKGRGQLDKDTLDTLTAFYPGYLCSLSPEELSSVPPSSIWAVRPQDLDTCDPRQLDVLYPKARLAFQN

[3] = molecular target: T2, human MSLN-R2-his protein; assay: ELISA on coated antigen, antibody 0.1 nM
Description: as §1

[4] = molecular target: T3, human MSLN-R3-his protein (human, UniProt Q13421 487-598); assay: ELISA on coated antigen, antibody 10 nM
T3 construct: Self-made in HEK293E cells; also called human MSLN-R3 protein; hMSLN-R3-his; not shown: His tag
T3 sequence (Q13421 495-606): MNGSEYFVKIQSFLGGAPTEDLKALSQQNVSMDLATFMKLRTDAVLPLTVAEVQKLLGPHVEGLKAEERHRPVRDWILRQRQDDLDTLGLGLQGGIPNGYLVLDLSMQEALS

[5] = molecular target: T3, human MSLN-R3-his protein; assay: ELISA on coated antigen, antibody 1 nM
Description: as §1

[6] = molecular target: T2, human MSLN-R2-his protein; assay: ELISA on coated antigen, antibody 100 nM
Description: as §1

[7] = molecular target: T1, human MSLN-R3-3 polypeptide; assay: ELISA on coated antigen, antibody 0.001 nM
Description: as §1

[8] = molecular target: T3, human MSLN-R3-his protein; assay: ELISA on coated antigen, antibody 0.01 nM
Description: as §1

[9] = molecular target: T3, human MSLN-R3-his protein; assay: ELISA on coated antigen, antibody 100 nM
Description: as §1

[10] = molecular target: T2, human MSLN-R2-his protein; assay: ELISA on coated antigen, antibody 10 nM
Description: as §1

[11] = molecular target: T1, human MSLN-R3-3 polypeptide; assay: ELISA on coated antigen, antibody 1 nM
Description: as §1

[12] = molecular target: T3, human MSLN-R3-his protein; assay: ELISA on coated antigen, antibody 0.0001 nM
Description: as §1

[13] = molecular target: T3, human MSLN-R3-his protein; assay: ELISA on coated antigen, antibody 0.001 nM
Description: as §1

[14] = molecular target: T1, human MSLN-R3-3 polypeptide; assay: ELISA on coated antigen, no antibody (column none)
Description: as §1

[15] = molecular target: T1, human MSLN-R3-3 polypeptide; assay: ELISA on coated antigen, antibody 0.1 nM
Description: as §1

[16] = molecular target: T2, human MSLN-R2-his protein; assay: ELISA on coated antigen, antibody 0.0001 nM
Description: as §1

[17] = molecular target: T2, human MSLN-R2-his protein; assay: ELISA on coated antigen, antibody 0.01 nM
Description: as §1

[18] = molecular target: T3, human MSLN-R3-his protein; assay: ELISA on coated antigen, no antibody (column none)
Description: as §1

[19] = molecular target: T1, human MSLN-R3-3 polypeptide; assay: ELISA on coated antigen, antibody 10 nM
Description: as §1

[20] = molecular target: T1, human MSLN-R3-3 polypeptide; assay: ELISA on coated antigen, antibody 0.0001 nM
Description: as §1

[21] = molecular target: T2, human MSLN-R2-his protein; assay: ELISA on coated antigen, no antibody (column none)
Description: as §1

[22] = molecular target: T1, human MSLN-R3-3 polypeptide; assay: ELISA on coated antigen, antibody 100 nM
Description: as §1

[23] = molecular target: T3, human MSLN-R3-his protein; assay: ELISA on coated antigen, antibody 0.1 nM
Description: as §1

[24] = molecular target: T2, human MSLN-R2-his protein; assay: ELISA on coated antigen, antibody 1 nM
Description: as §1

[25] = molecular target: T4, human MSLN-FL-his protein (human, UniProt Q13421 296-580); assay: competitive ELISA; row F8-18.9
T4 construct: made in HEK293E cells, purified on nickel column; also called hMSLN-FL-his; human MSLN full-length protein; not shown: His tag
T4 sequence (Q13421 other isoform, or with tags, fused parts or gaps): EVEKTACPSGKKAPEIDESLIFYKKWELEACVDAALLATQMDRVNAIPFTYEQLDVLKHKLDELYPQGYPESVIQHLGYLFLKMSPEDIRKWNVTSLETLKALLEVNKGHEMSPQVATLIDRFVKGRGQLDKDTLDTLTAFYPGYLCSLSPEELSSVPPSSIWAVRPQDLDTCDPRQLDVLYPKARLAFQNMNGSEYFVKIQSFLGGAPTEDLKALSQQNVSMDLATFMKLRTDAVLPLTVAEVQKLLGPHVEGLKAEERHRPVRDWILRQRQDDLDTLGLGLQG

[26] = molecular target: T4, human MSLN-FL-his protein; assay: competitive ELISA; row F8-19.21
Description: (§2) In order to identify antigen-binding sites of antibodies, MSLN chimeric antibodies were grouped using competitive ELISA.
(§3) The chimeric antibodies were diluted to 2 μg/mL with PBS and allowed to coat 96-well high-adsorption ELISA plates at 50 μL/well. After the plates were coated at 4° C. overnight, 250 μL of a blocking buffer (PBS containing 2% (w/w) BSA) was added for two hours of blocking at room temperature. 40 μg/mL of the antibodies to be tested were added, and then the human MSLN-FL-His protein with an EC₈₀ concentration corresponding to each of the antibodies to be tested was added for incubation for 2 h. The plates were washed 5 times with PBS, an HRP-labeled anti-His secondary antibody (purchased from Genescript, Cat. No. A00612) was then added for incubation for 1 h, and the plates were washed 5 times again. A TMB substrate was added at 50 μL/well, and after 10 minutes of incubation at room temperature, a stop solution (1.0 M HCl) was added at 50 μL/well. OD₄₅₀ nm values were read using an ELISA plate reader (Insight, purchased from PerkinElmer), and the competition rate between the antibodies was calculated according to the OD₄₅₀ nm values using a formula.

[27] = molecular target: T5, human MSLN protein endogenously expressed on OVCAR3 tumor cells (human, UniProt Q13421 296-598); assay: FACS on OVCAR3 cells;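 also: flow cytometry of chimeric antibody binding to OVCAR3 cells, 2 h on ice, read as cellular mean fluorescence intensity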
T5 construct: whole, on cells; endogenous expression on a tumor cell line; also called human mesothelin
T5 sequence (Q13421 other isoform, or with tags, fused parts or gaps): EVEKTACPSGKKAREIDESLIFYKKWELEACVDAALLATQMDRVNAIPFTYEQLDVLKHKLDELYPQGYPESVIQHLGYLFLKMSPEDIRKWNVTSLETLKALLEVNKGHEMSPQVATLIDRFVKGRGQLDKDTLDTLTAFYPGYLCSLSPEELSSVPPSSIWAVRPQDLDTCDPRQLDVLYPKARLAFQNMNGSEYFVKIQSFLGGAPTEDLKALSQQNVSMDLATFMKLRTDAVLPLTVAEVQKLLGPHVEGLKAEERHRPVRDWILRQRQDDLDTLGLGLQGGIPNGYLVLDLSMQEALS

[28] = molecular target: T4, human MSLN-FL-his protein; assay: competitive ELISA; row Tab142
Description: as §2, §3

[29] = molecular target: T4, human MSLN-FL-his protein; assay: competitive ELISA; row F8-27.1
Description: as §2, §3

[30] = molecular target: T4, human MSLN-FL-his protein; assay: SPR (Biacore), antibody captured on Protein A chip;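 also: flow cell at 25 °C, antigen injected for 240 s at five concentrations from 200 nM downward, dissociation followed up to 600 s, double-referenced, fitted with Langmuir 1:1 model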
Description: The flow cell was set at 25° C. The sample block was set at 16° C. Both were pretreated with the running buffer. In each cycle, first, the antibody to be tested was captured using the Protein A chip, and then a single concentration of human MSLN-FL-his protein was injected. […] The association was determined by injecting different concentrations of human MSLN-FL-his in solution for 240 s on end, wherein the flow rate was 30 μL/min, and the protein was diluted in a 1:1 dilution ratio from 200 nM (see detailed results for actual concentrations tested) to obtain 5 concentrations in total. The dissociation phase was monitored for up to 600 s and triggered by switching from the sample solution to the running buffer. The surface was regenerated by washing with 10 mM glycine solution (pH 1.5) at a flow rate of 30 μL/min for 30 s. The difference in bulk refractive index was corrected by subtracting the responses obtained from the goat anti-human Fc surface. Blank injections were also subtracted (=double reference). To calculate the apparent KD and other kinetic parameters, the Langmuir 1:1 model was used.

[31] = molecular target: T4, human MSLN-FL-his protein; assay: competitive ELISA; row F8-31.22
Description: as §2, §3

[32] = molecular target: T6, human MSLN-R3 protein expressed on HEK293T cells (HEK293T-hMSLN-R3) (human, UniProt Q13421 487-606); assay: FACS on HEK293T-hMSLN-R3 cells;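 also: chimeric antibodies incubated with cells on ice for 2 h, binding read by flow cytometry as mean fluorescence intensity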
T6 construct: C-terminal limit uncertain
T6 sequence (Q13421 495-614): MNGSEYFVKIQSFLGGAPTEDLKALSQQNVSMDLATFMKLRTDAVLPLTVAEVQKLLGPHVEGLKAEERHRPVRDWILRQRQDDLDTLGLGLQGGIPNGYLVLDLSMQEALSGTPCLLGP
Description: The desired cells were expanded to the logarithmic growth phase in a T-75 cell culture flask. […] After the cells from the previous step were subjected to cell counting, the cell pellet was resuspended to 2×10⁶ cells/mL in a blocking buffer of [PBS+2% (w/w) BSA] and added into a 96-well FACS reaction plate at 50 μL/well. A chimeric antibody (a sample to be tested) was added at 50 μL/well, and the plate was incubated on ice for 2 h. […] After the plate was centrifuged and washed 5 times with a PBST buffer, assay and analysis were performed by FACS (FACS CantoII, purchased from BD). Data analysis was performed by software (Flowjo) to obtain the mean fluorescence intensity (MFI) of the cells.

[33] = molecular target: T4, human MSLN-FL-his protein; assay: competitive ELISA; row F8-5.15
Description: as §2, §3

[34] = molecular target: T4, human MSLN-FL-his protein; assay: competitive ELISA; row F8-12.13
Description: as §2, §3

[35] = molecular target: T4, human MSLN-FL-his protein; assay: competitive ELISA; row F8-15.19
Description: as §2, §3

[36] = molecular target: T4, human MSLN-FL-his protein; assay: competitive ELISA; row F8-7.5
Description: as §2, §3

[37] = molecular target: T4, human MSLN-FL-his protein; assay: competitive ELISA; row Tab021
Description: as §2, §3

[38] = molecular target: T4, human MSLN-FL-his protein; assay: competitive ELISA; row F8-4.5
Description: as §2, §3

[39] = molecular target: T4, human MSLN-FL-his protein; assay: competitive ELISA; row F8-13.8
Description: as §2, §3

B1: S009-F2.16.10 (antibody, human IgG1, kappa, V domains shown)
VH: QVQLQQPGAELIKPGASVKLSCKASGYTFTSYWMHWVKQRPGQGLEWIGIIHPNIGSTNYNERFKSKATLTVDKSSSTAYMQLSSLTSEDSAVYYCARRSSNYGDWYFDVWGTGTTVTVSS
VL: DIVMTQSHRFMSTSVGDRVSITCKASQDVGTSVAWYQQKPGQSPKLLIYWASTQHTGVPDRFTGSGSGTDFTLTINNVQSEDLLDYFCQQYSSYPLTFGAGTKLELKR
notes: Human-murine chimeric antibody: murine VH/VL on human IgG1 heavy and kappa light constant regions
OD450 [1]: 0.05 OD450 | OD450 [2]: 0.05 OD450 | OD450 [3]: 0.05 OD450 | OD450 [4]: 0.05 OD450 | OD450 [5]: 0.05 OD450 | OD450 [6]: 0.05 OD450 | OD450 [7]: 0.05 OD450 | OD450 [8]: 0.05 OD450 | OD450 [9]: 0.06 OD450 | OD450 [10]: 0.05 OD450 | OD450 [11]: 0.05 OD450 | OD450 [12]: 0.05 OD450 | OD450 [13]: 0.05 OD450 | OD450 [14]: 0.05 OD450 | OD450 [15]: 0.05 OD450 | OD450 [16]: 0.05 OD450 | OD450 [17]: 0.05 OD450 | OD450 [18]: 0.06 OD450 | OD450 [19]: 0.05 OD450 | OD450 [20]: 0.05 OD450 | OD450 [21]: 0.06 OD450 | OD450 [22]: 0.05 OD450 | OD450 [23]: 0.05 OD450 | OD450 [24]: 0.05 OD450

B4: S009-F2.13.3 (antibody, human IgG1, kappa, V domains shown)
VH: QVQLQQSGAELMKPGASVKLSCKATGYTFTGYWIEWVKQRPGHGLEWIGEILPGSGSTNYNEKFKGKATFTADTSSNTAYMQLSSLTTEDSAIYYCARAGAWFAYWGQGTLVTVSA
VL: QIVLTQSPAIMSASLGERVTMTCTASSSVSSSYLHWYQQKPGSSPKLWTYSTSNLASGVPARFSGSGSGTSYSLTISSMEAEDAATYYCHQYHRSPWTFGGGTKLEIKR
notes: as for B1
OD450 [1]: 0.05 OD450 | OD450 [2]: 0.05 OD450 | OD450 [3]: 0.05 OD450 | OD450 [4]: 0.06 OD450 | OD450 [5]: 0.05 OD450 | OD450 [6]: 0.07 OD450 | OD450 [7]: 0.05 OD450 | OD450 [8]: 0.05 OD450 | OD450 [9]: 0.06 OD450 | OD450 [10]: 0.06 OD450 | OD450 [11]: 0.05 OD450 | OD450 [12]: 0.05 OD450 | OD450 [13]: 0.06 OD450 | OD450 [14]: 0.05 OD450 | OD450 [15]: 0.05 OD450 | OD450 [16]: 0.06 OD450 | OD450 [17]: 0.05 OD450 | OD450 [18]: 0.06 OD450 | OD450 [19]: 0.07 OD450 | OD450 [20]: 0.05 OD450 | OD450 [21]: 0.06 OD450 | OD450 [22]: 0.06 OD450 | OD450 [23]: 0.05 OD450 | OD450 [24]: 0.05 OD450

More lines, now with the values ahead:

competition rate [25]: 8.37% | competition rate [26]: 46.9% | EC50 [27]: 3.16 nM | Maximum mean fluorescence intensity [27]: 8140 | competition rate [28]: 39.3% | competition rate [29]: 75.5% | Kd [30]: 5.37 nM | koff [30]: 0.00724 s⁻¹ | kon [30]: 1.35e+06 M⁻¹ s⁻¹ | competition rate [31]: 90.7% | Maximum mean fluorescence intensity [32]: 165 | binding result [32]: no binding | competition rate [33]: 99.3% | competition rate [34]: 89.3% | competition rate [35]: 94.1% | competition rate [36]: -117% | competition rate [37]: -2.08% | competition rate [38]: 43.8% | competition rate [39]: 24%
B2: S009-F8-15.19 (antibody, human IgG1, kappa, V domains shown)
VH: EFQLQQSGPELVKPGASVKISCKASGYSFTDYNMNWVKQSNGKSLEWIGIINPYYGTTSNNQNFKGKATLTVDQSSSTAYMQLNSLTSDDSAVYYCARWLRRDAMDYWGQGTSVTVSS
VL: DIVMTPSHKFMSTSVGDRVSIACKASQDVGSSVAWYQQKPGQSPKLLIYWTSTRHTGVPDRFTGSGSGTDFTLTISNVQSEDLADYFCQQYSSYPWTFGGGTKLEIKR
notes: human-murine chimeric antibody, human IgG1/kappa constant regions

competition rate [25]: 0.11% | competition rate [26]: 16.3% | EC50 [27]: 0.64 nM | Maximum mean fluorescence intensity [27]: 7750 | competition rate [28]: 12.9% | competition rate [29]: 11.7% | Kd [30]: 87.6 nM | koff [30]: 0.0276 s⁻¹ | kon [30]: 315000 M⁻¹ s⁻¹ | competition rate [31]: 69.3% | Maximum mean fluorescence intensity [32]: 189 | binding result [32]: no binding | competition rate [33]: 86.5% | competition rate [34]: 64.8% | competition rate [35]: 83.2% | competition rate [36]: 18.1% | competition rate [37]: 10.3% | competition rate [38]: -2.53% | competition rate [39]: 5.21%
B3: S009-F8-31.22 (antibody, human IgG1, kappa, V domains shown)
VH: EVQLVESGGDLVKPGGSLKLSCAASGFTFSTYGMSWVRQTPDKRLEWVATISSGGSYTYYPDSLKGRFTISRDNAKNTLYLQMSSLKSEDTAMYYCARHEGYYYGKDYWGQGTTLTVSS
VL: DIVLTQSPATLSVTPGDSVSLSCRASHSISNNLHWYQQKSHESPRLLIKYASQSISGIPSKFSGSGSGTDFTLSINSVETEDFGMYFCQQTNSWPLTFGAGTKLELKR
notes: as for B2

competition rate [25]: 8.9% | competition rate [26]: 25.5% | EC50 [27]: 4.08 nM | Maximum mean fluorescence intensity [27]: 4920 | competition rate [28]: 15.3% | competition rate [29]: 39.7% | Kd [30]: 27.4 nM | koff [30]: 0.017 s⁻¹ | kon [30]: 620000 M⁻¹ s⁻¹ | competition rate [31]: 79% | Maximum mean fluorescence intensity [32]: 98 | binding result [32]: no binding | competition rate [33]: 96.8% | competition rate [34]: 79.2% | competition rate [35]: 82.2% | competition rate [36]: -148% | competition rate [37]: 1.09% | competition rate [38]: 29.6% | competition rate [39]: 7.5%
B5: S009-F8-5.15 (antibody, human IgG1, kappa, V domains shown)
VH: QVQLQQPGTELVKPGASVKLSCKASGYTFTSYWMHWVKQRPGQGLEWIGHSNPSNGGTNYNEKFKSKATLTVDKSSSTAYMQLSSLTSEDSAVYYCARWVRGSNYEYFDVWGTGTTVTVSS
VL: DIVMTQSQKFMSTTVGDRVSIICKASQNVGSAVAWCQQKPGQSPKLLIYSASNRYTGVPDRFTGSGSGTDFTLTISNMQSEDLADYFCQQYSSYPLTFAGGTKLEIKR
notes: as for B2
